From paper PMC7961048 (2021)
Where two headings read alike, the source gives them in different places.

Key:
Test in all cases: FP
[1] = target: T1, HPV35 E6 phospho-PBM peptide p35E6 (human papillomavirus type 35)
[2] = target: T2, HPV33 E6 phospho-PBM peptide p33E6 (human papillomavirus type 33)
[3] = target: T1, HPV35 E6 phospho-PBM peptide p35E6; remark: listed apart in the source
[4] = target: T2, HPV33 E6 phospho-PBM peptide p33E6; remark: listed apart in the source

B1: full-length human 14-3-3η fused to the C terminus of MBP (natural protein)
chain: MGDREQLLQRARLAEQAERYDDMASAMKAVTELNEPLSNEDRNLLSVAYKNVVGARRSSWRVISSIEQKTMADGNEKKLEKVKAYREKIEKELETVCNDVLSLLDKFLIKNCNDFQYESKVFYLKMKGDYYRYLAEVASGEKKNSVVEASEAAYKEAFEISKEQMQPTHPIRLGLALNFSVFYYEIQNAPEQACLLAKQAFDDAIAELDTLNEDSYKDSTLIMQLLRDNLTLWTSDQQDEEAGEGN
- Kd [1]: 163 µM
- Kd [2]: 1.98 µM
- Kd [3]: 163 µM
- Kd [4]: 2 µM

B2: full-length human 14-3-3β fused to the C terminus of MBP (natural protein)
chain: MTMDKSELVQKAKLAEQAERYDDMAAAMKAVTEQGHELSNEERNLLSVAYKNVVGARRSSWRVISSIEQKTERNEKKQQMGKEYREKIEAELQDICNDVLELLDKYLIPNATQPESKVFYLKMKGDYFRYLSEVASGDNKQTTVSNSQQAYQEAFEISKKEMQPTHPIRLGLALNFSVFYYEILNSPEKACSLAKTAFDEAIAELDTLNEESYKDSTLIMQLLRDNLTLWTSENQGDEGDAGEGEN
- Kd [2]: 4.05 µM
- Kd [3]: > 300 µM
- Kd [4]: 4.1 µM

B3: unfused 14-3-3τ devoid of the flexible C-terminal tail (domain or fragment)
chain: MEKTELIQKAKLAEQAERYDDMATCMKAVTEQGAELSNEERNLLSVAYKNVVGGRRSAWRVISSIEQKTDTSDKKLQLIKDYREKVESELRSICTTVLELLDKYLIANATNPESKVFYLKMKGDYFRYLAEVACGDDRKQTIDNSQGAYQEAFDISKKEMQPTHPIRLGLALNFSVFYYEILNNPELACTLAKTAFDEAIAELDTLNEDSYKDSTLIMQLLRDNLTLWT
- Kd [1]: 363 µM
- Kd [2]: 5.15 µM

B4: full-length human 14-3-3σ fused to the C terminus of MBP (natural protein)
chain: MERASLIQKAKLAEQAERYEDMAAFMKGAVEKGEELSCEERNLLSVAYKNVVGGQRAAWRVLSSIEQKSNEEGSEEKGPEVREYREKVETELQGVCDTVLGLLDSHLIKEAGDAESRVFYLKMKGDYYRYLAEVATGDDKKRIIDSARSAYQEAMDISKKEMPPTNPIRLGLALNFSVFHYEIANSPEEAISLAKTTFDEAMADLHTLSEDSYKDSTLIMQLLRDNLTLWTADNAGEEGGEAPQEPQS
- Kd [2]: 6.77 µM
- Kd [3]: > 300 µM
- Kd [4]: 6.8 µM

B5: unfused 14-3-3β devoid of the flexible C-terminal tail (domain or fragment)
chain: MTMDKSELVQKAKLAEQAERYDDMAAAMKAVTEQGHELSNEERNLLSVAYKNVVGARRSSWRVISSIEQKTERNEKKQQMGKEYREKIEAELQDICNDVLELLDKYLIPNATQPESKVFYLKMKGDYFRYLSEVASGDNKQTTVSNSQQAYQEAFEISKKEMQPTHPIRLGLALNFSVFYYEILNSPEKACSLAKTAFDEAIAELDTLNEESYKDSTLIMQLLRDNLTLWT
- Kd [1]: > 400 µM
- Kd [2]: 6.92 µM

B6: unfused 14-3-3ε devoid of the flexible C-terminal tail (domain or fragment)
chain: MDDREDLVYQAKLAEQAERYDEMVESMKKVAGMDVELTVEERNLLSVAYKNVIGARRASWRIISSIEQKEENKGGEDKLKMIREYRQMVETELKLICCDILDVLDKHLIPAANTGESKVFYYKMKGDYHRYLAEFATGNDRKEAAENSLVAYKAASDIAMTELPPTHPIRLGLALNFSVFYYEILNSPDRACRLAKAAFDDAIAELDTLSEESYKDSTLIMQLLRDNLTLWTS
- Kd [1]: > 300 µM
- Kd [2]: 7.94 µM

B7: full-length human 14-3-3ε fused to the C terminus of MBP (natural protein)
chain: MDDREDLVYQAKLAEQAERYDEMVESMKKVAGMDVELTVEERNLLSVAYKNVIGARRASWRIISSIEQKEENKGGEDKLKMIREYRQMVETELKLICCDILDVLDKHLIPAANTGESKVFYYKMKGDYHRYLAEFATGNDRKEAAENSLVAYKAASDIAMTELPPTHPIRLGLALNFSVFYYEILNSPDRACRLAKAAFDDAIAELDTLSEESYKDSTLIMQLLRDNLTLWTSDMQGDGEEQNKEALQDVEDENQ
- Kd [3]: > 300 µM
- Kd [4]: 10.3 µM

B8: full-length human 14-3-3τ fused to the C terminus of MBP (natural protein)
chain: MEKTELIQKAKLAEQAERYDDMATCMKAVTEQGAELSNEERNLLSVAYKNVVGGRRSAWRVISSIEQKTDTSDKKLQLIKDYREKVESELRSICTTVLELLDKYLIANATNPESKVFYLKMKGDYFRYLAEVACGDDRKQTIDNSQGAYQEAFDISKKEMQPTHPIRLGLALNFSVFYYEILNNPELACTLAKTAFDEAIAELDTLNEDSYKDSTLIMQLLRDNLTLWTSDSAGEECDAAEGAEN
- Kd [1]: 233 µM
- Kd [2]: 3.52 µM
- Kd [3]: 233 µM
- Kd [4]: 3.5 µM
